# Experimental data: article PMC2850201 (Archives of biochemistry and biophysics, 2008)
# Positions count from the first letter of the chain named. Names and notes keep the numbering of the source. “Also recorded” adds a separate entry of the source. Where two headings read alike, the source gives them in different places. Peptide text beside a SMILES is read from it.
# B1: CheZ peptide (peptide)
# peptide: AGVVASQDQVDDLLDSLGF
# B2: FliM peptide (peptide)
# peptide: MGDSILSQAEIDALLN
# B3: CheY~P: phosphorylated form of CheY (protein, UniProt P0AE67 2-129, looked up)
# Chemotaxis protein CheY: ADKELKFLVVDDFSTMRRIVRNLLKELGFNNVEEAEDGVDALNKLQAGGYGFVISDWNMPNMDGLELLKTIRADGAMSALPVLMVTAEAKKENIIAAAQAGASGYVVKPFTAATLEEKLNKIFEKLGM
# modifications: phosphorylated
# B4: T87I CheY~P: phosphorylated T87I CheY (protein, UniProt P0AE67 2-129, looked up, variant T87I)
# Chemotaxis protein CheY: B3 Chemotaxis protein CheY with T86I
# modifications: phosphorylated
# B5: T87I/Y106W CheY: E. coli CheY double mutant T87I/Y106W (protein, UniProt P0AE67 2-129, looked up, variant T87I Y106W)
# Chemotaxis protein CheY: B3 Chemotaxis protein CheY with T86I, Y105W
# B6: T87C CheY~P: phosphorylated T87C CheY (protein, UniProt P0AE67 2-129, looked up, variant T87C)
# Chemotaxis protein CheY: B3 Chemotaxis protein CheY with T86C
# modifications: phosphorylated
# B7: T87I CheY: E. coli CheY mutant T87I (protein, UniProt P0AE67 2-129, looked up, variant T87I)
# Chemotaxis protein CheY: B3 Chemotaxis protein CheY with T86I
# B8: Y106W CheY: Substitution of Tyr106 in E. coli CheY with tryptophan (protein, UniProt P0AE67 2-129, looked up, variant Y106W)
# Chemotaxis protein CheY: B3 Chemotaxis protein CheY with Y105W
# B9: T87I/Y106W CheY~P: phosphorylated T87I/Y106W CheY (protein, UniProt P0AE67 2-129, looked up, variant T87I Y106W)
# Chemotaxis protein CheY: B3 Chemotaxis protein CheY with T86I, Y105W
# modifications: phosphorylated
# Columns and labels:
# Phosphono-CheY [1] = molecular target: Phosphono-CheY (Escherichia coli, UniProt P0AE67, D57C); format: binding, E. coli; settings: phosphono-CheY versus CheY~P
# [2] = molecular target: T87I/Y106W Phosphono-CheY (Escherichia coli, UniProt P0AE67, D57C/T87I/Y106W); format: binding, E. coli; settings: ~2 μM protein, 100 mM HEPES, 10 mM MgCl2, 25 °C; no change in fluorescence intensity up to 500 μM peptide; uncertainty in intensity about 4 % due to noise
# Chain of T87I/Y106W Phosphono-CheY (P0AE67 2-129 D57C/T87I/Y106W limits assumed): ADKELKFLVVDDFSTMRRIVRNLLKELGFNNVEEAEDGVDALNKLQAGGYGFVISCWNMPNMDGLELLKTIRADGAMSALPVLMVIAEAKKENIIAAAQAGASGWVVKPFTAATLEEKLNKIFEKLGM
# T87I Phosphono-CheY = T87I Phosphono-CheY (Escherichia coli, UniProt P0AE67, D57C/T87I); format: binding, E. coli; settings: ~2 μM protein, 100 mM HEPES, 10 mM MgCl2, 25 °C; no change in fluorescence intensity up to 500 μM peptide; uncertainty in intensity about 4 % due to noise
# Chain of T87I Phosphono-CheY (P0AE67 2-129 D57C/T87I limits assumed): as the sequence (P0AE67 2-129 D57C/T87I/Y106W limits assumed) above, with W105Y counted along it
# [3] = molecular target: CheZ peptide (Escherichia coli) (UniProt P0A9H9); test: fluorescence; settings: cited from earlier work
# Chain of CheZ peptide (Escherichia coli) (P0A9H9 whole entry): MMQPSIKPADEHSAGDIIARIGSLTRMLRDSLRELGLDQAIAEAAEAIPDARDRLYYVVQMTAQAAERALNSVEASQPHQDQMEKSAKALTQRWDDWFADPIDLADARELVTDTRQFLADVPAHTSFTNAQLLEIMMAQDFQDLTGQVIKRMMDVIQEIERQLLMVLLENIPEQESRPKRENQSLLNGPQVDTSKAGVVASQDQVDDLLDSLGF
# [4] = molecular target: FliM peptide (Escherichia coli) (UniProt P06974); settings: cited from earlier work
# Chain of FliM peptide (Escherichia coli) (P06974 whole entry): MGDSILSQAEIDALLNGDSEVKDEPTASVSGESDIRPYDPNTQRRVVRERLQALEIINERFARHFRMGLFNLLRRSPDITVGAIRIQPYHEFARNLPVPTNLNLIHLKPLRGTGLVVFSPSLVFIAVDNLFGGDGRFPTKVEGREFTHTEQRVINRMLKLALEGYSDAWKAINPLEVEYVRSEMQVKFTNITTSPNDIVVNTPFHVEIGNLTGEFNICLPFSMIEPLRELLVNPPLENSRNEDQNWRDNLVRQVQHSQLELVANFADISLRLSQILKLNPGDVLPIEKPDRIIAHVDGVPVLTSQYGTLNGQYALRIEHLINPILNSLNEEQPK
# [5] = molecular target: FliM peptide (Escherichia coli) (UniProt P06974); settings: cited from earlier work; remark: listed apart in the source
# Phosphono-CheY [6] = molecular target: T1, Phosphono-CheY (Escherichia coli, UniProt P0AE67 1-129, D57C, phosphonomethyl group on Cys57 (Pcy57)); test: ITC
# T1 sequence (looked up): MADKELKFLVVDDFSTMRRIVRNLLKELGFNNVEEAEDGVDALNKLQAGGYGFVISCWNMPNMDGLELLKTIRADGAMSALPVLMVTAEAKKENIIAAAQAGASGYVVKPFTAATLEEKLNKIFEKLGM
# Phosphono-CheY [7] = molecular target: T1, Phosphono-CheY; test: ITC; remark: listed apart in the source
# Phosphono-CheY [8] = molecular target: T1, Phosphono-CheY; test: other fluorescence titration
# CheY~P = settings: cited from earlier work
# CheZ = settings: cited from earlier work
# flagellar rotation = settings: cited from earlier work
molecule,measurement,setting,value
CC[C@H](C)[C@H](NC(=O)[C@H](CCC(=O)O)NC(=O)[C@H](C)NC(=O)[C@H](CCC(N)=O)NC(=O)[C@H](CO)NC(=O)[C@H](CC(C)C)NC(=O)[C@@H](NC(=O)[C@H](CO)NC(=O)[C@H](CC(=O)O)NC(=O)CNC(=O)[C@@H](N)CCSC)[C@@H](C)CC)C(=O)N[C@@H](CC(=O)O)C(=O)N[C@@H](C)C(=O)N[C@@H](CC(C)C)C(=O)N[C@@H](CC(C)C)C(=O)N[C@@H](CC(N)=O)C(=O)O [FliM peptide] (H-MGDSILSQAEIDALLN-OH),affinity / Kd for phosphono-CheY compared with CheY~P,Phosphono-CheY [1],CheY~P binds the same FliM peptide with slightly higher affinity; also recorded: almost identical
same,Kd (fluorescence),[2],Not detectable ^b
same,Kd (fluorescence),T87I Phosphono-CheY,Not detectable ^b
CheY (from UniProt P0AE67),Kd,[3],440 µM
same,Kd,[4],680 µM
CheY~P (from UniProt P0AE67),Kd,[3],26 µM
same,Kd,[5],27 µM
B1,dH,Phosphono-CheY [6],-4.8 kcal/mol
B2,Kd,Phosphono-CheY [7],21 µM
same,Kd,Phosphono-CheY [8],38 ± 1 µM
same,dH,Phosphono-CheY [6],-2.4 kcal/mol
B3,half-life of CheY~P,CheY~P; in the absence of CheZ,15 to 20 s
same,in vivo half-life of CheY~P,"CheZ; in vivo, autophosphatase plus CheZ",less than a second
B4,sensitivity to CheZ,CheZ,resistant to CheZ-promoted phosphatase activity
B5,autodephosphorylation rate,CheY~P,~ 5 fold lower
same,sensitivity to CheZ,CheZ,completely resistant to CheZ activity
same,generation of clockwise rotation of the flagella,flagellar rotation,cannot generate clockwise rotation of the flagella
B6,sensitivity to CheZ-promoted phosphatase activity,CheZ,the same is true of T87C CheY~P
B7,autodephosphorylation rate,CheY~P,~ 5 fold lower
same,sensitivity to CheZ,CheZ,completely resistant to CheZ activity
same,generation of clockwise rotation of the flagella,flagellar rotation,cannot generate clockwise rotation of the flagella
B8,flagellar rotation / swimming phenotype,flagellar rotation,hyperactive mutant that generates mainly clockwise rotational bias
B9,sensitivity to CheZ,CheZ,resistant to CheZ-promoted phosphatase activity
